Assay results: patent US5493008A, “Two non-contiguous regions contribute to nidogen binding to a single EGF-like motif of the laminin γ1 chain” (The University Of Virginia Patent Foundation, priority 1994, dated 1996)
Changes are numbered by the printed parent chain. Read-outs that look alike come from different tables or passages of the source. Values belong to the molecule of their own block, whether it stands above or below them. Where no end group is shown, it is not given here. The star is where a group is joined. Succinimide(1-Et,3-yl) = CCN1C(=O)CC(*)C1=O

Key:
[1] = target: T1, nidogen (Mus musculus, UniProt P10493); conditions: Fox et al. 1991; read-out: κD of the high affinity binding site for nidogen; cited from earlier work
T1 sequence (P10493 29-1245): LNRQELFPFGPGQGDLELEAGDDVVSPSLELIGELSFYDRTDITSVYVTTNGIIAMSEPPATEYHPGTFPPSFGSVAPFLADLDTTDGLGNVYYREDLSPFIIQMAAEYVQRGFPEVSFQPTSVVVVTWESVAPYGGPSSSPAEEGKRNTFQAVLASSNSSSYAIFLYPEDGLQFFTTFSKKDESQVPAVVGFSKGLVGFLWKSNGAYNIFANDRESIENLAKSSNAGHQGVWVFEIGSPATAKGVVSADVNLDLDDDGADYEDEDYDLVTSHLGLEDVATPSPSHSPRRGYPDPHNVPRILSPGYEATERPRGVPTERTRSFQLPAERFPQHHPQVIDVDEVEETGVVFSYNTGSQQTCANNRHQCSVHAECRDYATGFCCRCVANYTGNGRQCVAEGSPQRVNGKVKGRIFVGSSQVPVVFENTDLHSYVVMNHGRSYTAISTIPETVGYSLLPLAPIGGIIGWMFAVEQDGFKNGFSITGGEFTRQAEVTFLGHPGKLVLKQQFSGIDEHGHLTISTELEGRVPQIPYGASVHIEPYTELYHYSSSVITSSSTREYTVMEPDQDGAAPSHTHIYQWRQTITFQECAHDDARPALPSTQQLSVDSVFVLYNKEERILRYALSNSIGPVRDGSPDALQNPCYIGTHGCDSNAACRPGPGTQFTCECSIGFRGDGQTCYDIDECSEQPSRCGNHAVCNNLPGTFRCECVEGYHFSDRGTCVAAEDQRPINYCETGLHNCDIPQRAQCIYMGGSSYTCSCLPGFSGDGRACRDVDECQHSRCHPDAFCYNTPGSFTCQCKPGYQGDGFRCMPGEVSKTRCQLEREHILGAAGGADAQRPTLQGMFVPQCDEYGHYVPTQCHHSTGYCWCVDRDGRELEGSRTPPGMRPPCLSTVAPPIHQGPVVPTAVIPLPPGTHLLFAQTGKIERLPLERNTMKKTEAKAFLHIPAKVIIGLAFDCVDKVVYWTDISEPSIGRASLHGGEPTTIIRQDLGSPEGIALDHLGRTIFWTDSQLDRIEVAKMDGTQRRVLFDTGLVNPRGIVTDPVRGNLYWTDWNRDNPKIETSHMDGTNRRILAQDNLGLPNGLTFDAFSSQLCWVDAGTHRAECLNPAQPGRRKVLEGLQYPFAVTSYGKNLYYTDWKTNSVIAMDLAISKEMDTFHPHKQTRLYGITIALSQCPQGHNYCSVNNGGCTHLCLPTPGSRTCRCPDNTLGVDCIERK

[2] = target: T2, recombinant nidogen (Mus musculus (Mouse)) (UniProt P10493); assay: radioligand competition assay, average of 14 separate assays: non-labeled fragment P1 varied, 0.2 nM recombinant nidogen, 125I-laminin fragment P1
T2 sequence: T1 sequence (P10493 29-1245)

[3] = target: T2, recombinant nidogen (Mus musculus (Mouse)); assay: radioligand competition assay: non-labeled fragment P1 varied, 0.2 nM recombinant nidogen, 125I-laminin fragment P1
[4] = target: T2, recombinant nidogen (Mus musculus (Mouse)); assay: as above; remark: listed apart in the source
[5] = target: T3, recombinant nidogen (Mus musculus (Mouse), UniProt P10493); assay: radioligand competition assay: inhibitor varied, 0.2 nM recombinant nidogen, 125I-laminin fragment P1
T3 sequence: T1 sequence (P10493 29-1245)
Method: (§1) A radioligand competition assay was used for measurement of relative binding affinities (Mann K. et al. (1988), Eur. J. Biochem., 178, 71–80; Fox, J. W. et al. (1991), EMBO J., 10, 3137–3146). A fixed concentration of recombinant nidogen (0.2 nM) was incubated overnight at 4° C. with inhibitors at varying concentrations, followed by the addition of ^125I-labeled laminin fragment P1 (0.01 nM; 10,000–20,000 c.p.m.) for the same incubation period. Bound and non-bound fragment P1 was then separated by antibodies against nidogen.

[6] = target: T3, recombinant nidogen; assay: radioligand competition assay, reduced and alkylated against the non-reduced mutant
Method: as §1

[7] = target: T3, recombinant nidogen; assay: radioligand competition assay, reduced and alkylated against the non-reduced chimera
Method: as §1

[8] = target: T2, recombinant nidogen (Mus musculus (Mouse)); assay: radioligand competition assay, synthetic heptapeptide variant
[9] = target: T2, recombinant nidogen (Mus musculus (Mouse)); assay: radioligand competition assay: inhibitor varied, 0.2 nM recombinant nidogen, 125I-laminin fragment P1
[10] = target: T3, recombinant nidogen; assay: radioligand competition assay; end of the range tied to this mutant by its IC50 in Table IV
Method: as §1

[11] = target: T3, recombinant nidogen; assay: radioligand competition assay: inhibitor varied, 0.2 nM recombinant nidogen, 125I-laminin fragment P1; remark: listed apart in the source
Method: as §1

[12] = target: T3, recombinant nidogen; assay: radioligand competition assay, nitrated γ1III3-5
Method: as §1

[13] = target: T3, recombinant nidogen; assay: radioligand competition assay, Tyr-acetylated γ1III3-5
Method: as §1

IC50 [5]: 430 nM
fold decrease in activity on reduction and alkylation [6]: ~300 fold
B1: γ1III4Y819/825-A, reduced (other)
chain: PC(Succinimide(1-Et,3-yl))QC(Succinimide(1-Et,3-yl))NDNIDPNAVGNC(Succinimide(1-Et,3-yl))NRLTGEC(Succinimide(1-Et,3-yl))LKC(Succinimide(1-Et,3-yl))IANTAGFAC(Succinimide(1-Et,3-yl))DRC(Succinimide(1-Et,3-yl))KEGFFGNPLAPNPADKC(Succinimide(1-Et,3-yl))K

fold reduction in activity against the heptapeptide NIDPNAV [8]: 100 fold
IC50 [9]: 100000 nM
Molecule: NINPNAV

IC50 [11]: 3 nM
fold decrease in binding activity against unmodified γ1III3-5 [13]: 75 fold
B6: γ1III3-5, Tyr acetylation (other)
chain: PCPCPGGSSCAIVPKTKEVVCTHCPTGTAGKRCELCDDGYFGDPLGSNGPVRLCRPCQCNDNIDPNAVGNCNRLTGECLKCIYNTAGFYCDRCKEGFFGNPLAPNPADKCKACACNPYGTVQQQSSCNPVTGQCQCLPHVSGRDCGTCDPGYYNLQSGQGCE
modifications: tyrosine hydroxyl groups acetylated with acetic acid anhydride

More lines, now with the values behind:

Molecule: laminin 1: laminin of chain composition α1β1γ1
Kd [1]: 0.5 nM

Molecule: laminin fragment P1
IC50 [2]: 0.05 nM
IC50 [3]: 0.08 nM
IC50 [4]: 0.05 nM

B2: γ1III3ab4cd, reduced (other)
chain: PC(Succinimide(1-Et,3-yl))PC(Succinimide(1-Et,3-yl))PGGSSC(Succinimide(1-Et,3-yl))AIVPKTKEVVC(Succinimide(1-Et,3-yl))THC(Succinimide(1-Et,3-yl))IYNTAGFYC(Succinimide(1-Et,3-yl))DRC(Succinimide(1-Et,3-yl))KEGFFGNPLAPNPADKC(Succinimide(1-Et,3-yl))K
fold decrease in activity on reduction and alkylation [7]: 6 fold
IC50 [5]: 6700 nM

B3: γ1III4Y819-A (other)
chain: PCQCNDNIDPNAVGNCNRLTGECLKCIANTAGFYCDRCKEGFFGNPLAPNPADKCK
fold reduction in activity against wild-type γ1III4 [10]: 30 to 60 fold
IC50 [5]: 3 nM

B4: γ1III4Y819/825-A (other)
chain: B3 chain with Y34A
fold reduction in activity against wild-type γ1III4 [10]: 30 to 60 fold
IC50 [5]: 1.5 nM

B5: nitrated γ1III3-5 (other)
chain: B6 chain
modifications: tyrosines nitrated with tetranitromethane
IC50 [11]: 3 nM
fold decrease in binding activity against unmodified γ1III3-5 [12]: 75 fold
